Experimental data from doi:10.1101/2022.06.19.496723.

Target: NnlA (N-nitroglycine lyase) from Variovorax sp. strain JS1663, tag-free after TEV cleavage (Variovorax sp. strain JS1663)
Assay: SEC

stoichiometry N: 2
Substance: NnlA (N-nitroglycine lyase) from Variovorax sp. strain JS1663, tag-free after TEV cleavage (enzyme)
